Reference: PMC9499541, “Ait1 regulates TORC1 signaling and localization in budding yeast” (eLife, 2022)

B1: GFP-Ait1 (natural protein, S. cerevisiae, UniProt Q12301 1-547, looked up)
chain: MVRLNHAASYFMPIFCSTRPHIVILSALFSISLFSLFYASSELLLHQYDDPLMFKPNSQDYFRTFLLGLFSPFLYYFLKTFLFNINQRFLILNLIVDFPINDVFMLLILIGLAYPQVQDHEGGTIKHKECSWHIIPRQAYIFGISWALGEFTICIIGNLFNYQEIADPNINSGFTHQESANTYCNNNDMSHNDDCGCSTEYRPNVVDRSDITLSKCIEVRNDSSSISNNVYSSEYHPIKPLRSSSSTYGSIRQQPHENKKQLHVPDNSQDDTIIMMNPIDNSLKLTTLDTGDLSFPIDEEQPILKKSFGYTWAVPNENTQNTTKSFTPIKRFIAFSTAYQLVTGLLLMILVVGSNIMLTIGESLILSMYFVYVRGHEGLFTPVVNYFGSRTISNFILCVIIPFISLNFLINTSIYLRRELDDWFNNSQGEFEDDDENTISKRVATNQEYQHPLSANYISMDSPDVINSSPGHFGMNSGQLLGNTTLYYGSLNGDDDDMTNDSALLRFCKKLVKNWRALARNDSFVLGVMVSWSLLVFVTGILSTVYI
notes: Ait1 (Ydl180w), GPCR-like protein of the vacuolar membrane, S. cerevisiae; The strain list is in Supplementary file 3; source: S. cerevisiae (W303) strain carrying GFP-Ait1, in lysate; not shown: GFP, N-terminal, kept

Experiments:
Kog1-FLAG = biological target: T1, Kog1-FLAG (S. cerevisiae, UniProt P38873 1-1557); assay: co-IP; Kog1-FLAG immunopurified on anti-FLAG beads after DSP crosslinking; blot with anti-GFP and anti-FLAG; with and without amino acids, long-term amino acid and glucose starvation, also with 4x protease inhibitors; conditions: partners not purified
T1 construct: Kog1 (Raptor homolog), subunit of TORC1, S. cerevisiae; Bait on anti-FLAG beads; The strain list is in Supplementary file 3; also called Kog1/Raptor; TORC1 subunit Kog1; source: S. cerevisiae (W303) strain carrying Kog1-FLAG, in lysate

GFP-Ait1 = biological target: B1; assay: co-IP; GFP-Ait1 or GFP-Ait1C3v2 immunopurified on anti-GFP beads in nonionic detergent (digitonin) without a crosslinker; blot with anti-Myc and anti-GFP; log phase, 30 min amino acid starvation, long-term amino acid and glucose starvation; conditions: partners not purified

T1 sequence (P38873 whole entry): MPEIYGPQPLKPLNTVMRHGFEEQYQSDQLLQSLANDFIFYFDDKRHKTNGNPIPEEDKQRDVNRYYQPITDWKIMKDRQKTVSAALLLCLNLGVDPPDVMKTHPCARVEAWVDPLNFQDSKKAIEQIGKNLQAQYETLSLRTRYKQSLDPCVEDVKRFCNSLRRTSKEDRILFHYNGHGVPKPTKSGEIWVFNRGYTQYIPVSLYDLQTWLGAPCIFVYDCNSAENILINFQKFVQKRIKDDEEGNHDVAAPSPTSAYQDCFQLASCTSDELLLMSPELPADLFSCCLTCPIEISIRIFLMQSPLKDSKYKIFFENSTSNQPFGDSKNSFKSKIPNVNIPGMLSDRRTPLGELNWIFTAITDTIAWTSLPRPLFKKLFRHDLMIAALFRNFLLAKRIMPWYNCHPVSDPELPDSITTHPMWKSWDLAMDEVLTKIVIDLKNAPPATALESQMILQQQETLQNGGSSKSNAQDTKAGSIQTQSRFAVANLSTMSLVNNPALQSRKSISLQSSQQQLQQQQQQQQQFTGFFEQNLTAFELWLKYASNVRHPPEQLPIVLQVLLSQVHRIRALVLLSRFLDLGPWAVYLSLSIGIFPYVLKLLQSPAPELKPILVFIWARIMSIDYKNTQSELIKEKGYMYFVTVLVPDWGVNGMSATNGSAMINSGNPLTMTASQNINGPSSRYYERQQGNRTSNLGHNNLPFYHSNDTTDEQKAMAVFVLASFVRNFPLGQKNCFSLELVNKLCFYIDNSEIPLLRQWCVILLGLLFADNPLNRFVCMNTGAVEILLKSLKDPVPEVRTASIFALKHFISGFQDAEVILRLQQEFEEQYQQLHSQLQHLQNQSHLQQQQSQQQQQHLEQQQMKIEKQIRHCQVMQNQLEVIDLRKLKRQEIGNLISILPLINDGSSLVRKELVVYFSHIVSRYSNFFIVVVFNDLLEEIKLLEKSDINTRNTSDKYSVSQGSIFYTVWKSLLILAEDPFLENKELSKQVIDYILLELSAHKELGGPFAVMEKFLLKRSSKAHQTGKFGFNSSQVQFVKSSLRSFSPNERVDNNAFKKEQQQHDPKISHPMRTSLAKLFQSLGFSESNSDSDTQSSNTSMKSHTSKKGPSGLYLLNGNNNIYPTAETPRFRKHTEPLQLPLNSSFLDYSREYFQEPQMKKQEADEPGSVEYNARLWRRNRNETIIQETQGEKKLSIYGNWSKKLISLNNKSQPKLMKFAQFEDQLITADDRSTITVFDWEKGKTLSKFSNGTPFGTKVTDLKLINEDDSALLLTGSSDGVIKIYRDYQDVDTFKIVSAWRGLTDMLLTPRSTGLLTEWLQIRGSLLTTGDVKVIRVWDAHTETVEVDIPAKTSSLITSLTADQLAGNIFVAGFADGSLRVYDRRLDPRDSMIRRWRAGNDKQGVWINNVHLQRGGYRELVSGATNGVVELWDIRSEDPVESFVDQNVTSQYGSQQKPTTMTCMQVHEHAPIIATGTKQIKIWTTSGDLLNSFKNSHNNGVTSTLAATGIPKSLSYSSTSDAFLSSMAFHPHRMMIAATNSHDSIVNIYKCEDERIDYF

Row | amount copurified after long-term amino acid and glucose starvation, relative to log-phase growth (Kog1-FLAG) | amount copurified after long-term amino acid and glucose starvation, relative to log-phase growth (GFP-Ait1) | Binder
1 | 50 % of the level found in log-phase growth |  | B1
2 |  | 60 % of the level found in log-phase growth | Gtr1-myc (natural protein, S. cerevisiae, UniProt Q00582 1-310, looked up, Gtr1, small GTPase (homolog of RagA/B), S. cerevisiae; also called Gtr1/2; source: S. cerevisiae (W303) strain carrying Gtr1-myc, in lysate) MSSNNRKKLLLMGRSGSGKSSMRSIIFSNYSAFDTRRLGATIDVEHSHLRFLGNMTLNLWDCGGQDVFMENYFTKQKDHIFQMVQVLIHVFDVESTEVLKDIEIFAKALKQLRKYSPDAKIFVLLHKMDLVQLDKREELFQIMMKNLSETSSEFGFPNLIGFPTSIWDESLYKAWSQIVCSLIPNMSNHQSNLKKFKEIMNALEIILFERTTFLVICSSNGENSNENHDSSDNNNVLLDPKRFEKISNIMKNFKQSCTKLKSGFKTLILNNNIYVSELSSNMVCFIVLKDMNIPQELVLENIKKAKEFFQ
